Measured values: publication PMC6294567, “The C-terminal D/E-rich domain of MBD3 is a putative Z-DNA mimic that competes for Zα DNA-binding activity” (Nucleic Acids Research, 2018)
Several values for one entry are separate records, joined by “and”; a condition that tells them apart may be missing. Equal values may be shown once.

How the values were obtained:
[1] = test system: replication protein A (RPA); settings: cited from earlier work
Excerpt: This is the first report to identify a particular protein sequence with D/E repeats capable of competition with Z-DNA for binding to Zα, while the potential of acidic residues for DNA mimicry, referring to B-DNA or ssDNA, have been observed previously.

[2] = target: T1, Zα (Homo sapiens, UniProt P55265); test: SEC-MALS of Zα and Zα-D/E-rich peptide complexes; assay type: binding; settings: Zα 2.7 mg/ml, expected ~8.8
T1 construct: Zα of human ADAR1; residues 133–209; His6 (pMCSG7, followed by a TEV site) (N, cleaved yes); made in house; host or cells: E. coli BL21(DE3)
T1 sequence (P55265 133-209): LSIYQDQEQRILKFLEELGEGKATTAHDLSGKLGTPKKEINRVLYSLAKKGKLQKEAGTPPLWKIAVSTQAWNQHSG
Description: SEC−MALS measurements were conducted using a miniDAWN TREOS detector and an Optilab T-rEX differential refractive index detector (Wyatt Technology Corporation) coupled to an Agilent 1260 Infinity HPLC system. The SEC experiments were performed on an ENrich SEC 70 10 × 300 column (Bio-Rad) equilibrated in a buffer containing 20 mM HEPES–NaOH pH 7.5, 50 mM NaCl, 1 mM TCEP and 0.02% NaN3. The protein Zα alone (2.7 mg/ml) or the mixture of Zα and the D/E-rich peptide at various molar ratios and incubation periods as indicated was loaded onto the column at a flow rate of 0.5 ml/min. Bovine serum albumin (A1900; Sigma) was used for system calibration and molecular weights were calculated using ASTRA 6 software (Wyatt Technology Corporation) with a dn/dc value of 0.185 ml/g.
Figure 3. Analysis of complex formation of Zα and the D/E-rich domain. […] The left y axis represents the normalized UV absorbance at 280 nm, while the right y axis represents the molecular weight (Da). The horizontal traces show the calculated molecular weight. […] TEXT PRINTED IN THE PICTURE: (C) Zα: Measured MW (kDa): 9.8 ± 0.1; Expected MW (kDa): ~8.8 | (C) 1Zα: 1DE: Measured MW (kDa): 12.7 ± 0.1; Expected MW (kDa): ~11.6 | (C) 2Zα: 1DE: Measured MW (kDa): 20.8 ± 0.3; Expected MW (kDa): ~20.5

[3] = target: D/E-rich peptide of MBD3, unlabelled (full-length D/E-rich peptide) (human); test: SEC-MALS; Zα and D/E-rich peptide, equimolar (1, 16, 29 h) or 4:1 (1 h on ice); ENrich SEC 70 column; 20 mM HEPES-NaOH pH 7.5, 50 mM NaCl, 1 mM TCEP, 0.02% NaN3
[4] = test system: d(CG)6 duplex; test: Circular dichroism of d(CG)6 DNA conformation
Description: CD spectra were measured at 24°C on a J-815 Spectrometer (JASCO) using a 1 mm path length quartz cell. Prepare 7.5 μM DNA duplex in a buffer consisting of 5 mM HEPES–NaOH pH 7.5, 25 mM NaCl and 1 mM DTT, and in the absence or presence of indicated concentration of proteins. Spectra were recorded between 235 and 305 nm wavelength with a data pitch of 1 nm, bandwidth of 1 nm and with two accumulations at a scanning speed of 10 nm/min.
Figure 6. Zα can compete with the MBD domain for binding to d(CG)6, but not vice versa. (A) CD spectra of the d(CG)6 duplex in the presence of Zα. CD spectra of (B) the d(CG)6 and (C) the d(C^mG)6 duplex, respectively, in the presence of the MBD domain. (D) Monitoring of the change in CD spectra with the addition of increased amounts of Zα to the pre-incubated mixture of the MBD domain and d(CG)6. (E) Monitoring of the change in CD spectra with the addition of increased amount of the MBD domain to the pre-incubated mixture of Zα and d(CG)6. Spectra are expressed in absolute values of ellipticity in millidegrees (mdeg).

[5] = target: MBD3 MBD domain (MBD3MBD) (Homo sapiens, UniProt O95983 1-72); test: fluorescence polarization; high affinity similar to Zα; Kd value not in material; FP: 20 mM HEPES-NaOH pH 7.5, 50 mM NaCl, 1 mM DTT, 30 ul; temperature not stated; CD buffer not in material; settings: protein: recombinant; tags: His6 removed by TEV; unlabelled version also purchased; blunt; self-complementary duplex, annealed from 85°C
[6] = target: T2, Zα (Z-DNA binding domain of ADAR1) (Homo sapiens, UniProt P55265 133-209); test: fluorescence polarization; FP: 20 mM HEPES-NaOH pH 7.5, 50 mM NaCl, 1 mM DTT, 30 ul; temperature not stated; CD buffer not in material; settings: protein: recombinant; tags: His10 (pET16b) or tag-free after TEV (pMCSG7); chain copies: 2; unlabelled version also purchased; blunt; self-complementary duplex, annealed from 85°C
T2 sequence: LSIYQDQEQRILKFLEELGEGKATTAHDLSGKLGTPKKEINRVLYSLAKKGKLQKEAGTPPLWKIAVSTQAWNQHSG

[7] = target: T3, Sso7d (UniProt P39476 2-64); test: as above; settings: unlabelled version also purchased; blunt; self-complementary duplex, annealed from 85°C
T3 sequence: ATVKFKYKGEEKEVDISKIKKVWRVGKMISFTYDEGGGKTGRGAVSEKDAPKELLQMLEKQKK

[8] = target: T1, Zα; test: SEC / SDS-PAGE complex formation with Zα; assay type: binding; settings: Zα 100 μM : protein 25 μM (4:1), ice 1 h, 20 mM Tris–HCl pH 7.5, 50 mM NaCl, 1 mM TCEP
Description: Equimolar amounts (0.1 mM) of Zα and DE-rich peptide were incubated on ice for 1 h in a buffer containing 20 mM HEPES–NaOH pH 7.5, 50 mM NaCl, 1 mM DTT. The mixture was then loaded on a Superdex 30 16/600 column (GE Healthcare) equilibrated in the same buffer. The fractions from the peaks corresponding to Zα alone and the complex of Zα and DE-rich peptide were collected and used for chemical cross-linking.
To analyze complex formation of Zα and other proteins (MBD3, MBD or MBDDE), the mixtures were incubated on ice for 1 h in a buffer containing 20 mM Tris–HCl pH 7.5, 50 mM NaCl, 1 mM TCEP. The mixture was then loaded on a Superdex 75 or Superdex 200 increase 10/300 column (GE Healthcare).

[9] = Stability of E. coli-expressed protein; assay type: physicochemical; settings: recombinant E. coli-expressed protein
[10] = test system: His10-Zα; test: His10-Zα pull-down from HEK293 lysate with LC-MS/MS; assay type: binding, human; settings: HEK293 cell lysate, Ni beads
Description: HEK293 cells were collected and the pellet was resuspended in the lysis buffer [(50 mM Tris–HCl pH7.5, 1% NP-40, 150 mM NaCl, 10 mM imidazole, 0.1 mM PMSF, 90 U/ml Benzonaes (Novagen) and EDTA-free protease inhibitor cocktail tablet (Roche)]. Lysate was clarified by centrifugation for 30 min at 16 000 × g at 4°C. The protein concentration was measured by using Bradford assay. 20 mg of HEK293 cell lysate was pre-cleaned by adding 1 ml of Ni sepharose (50% slurry) (GE Healthcare) and rotated at 4°C for 1 h. Add 1 mg of purified His10-Zα protein (buffer only as a negative control) to the pre-cleaned lysate and rotate at 4°C overnight. To capture His10-Zα protein, add 0.2 ml Ni sepharose (50% slurry) and incubate at 4°C for 1 h in a rotation wheel. […] Add trichloroacetic acid to precipitate and concentrate the eluates. The concentrated eluates were resuspended in NuPAGE LDS sample buffer (Invitrogen), run on NuPAGE 12% Bis–Tris gels (Invotrogen) and stained using Instant Blue (Expedeon). […]
To identify Zα-interacting proteins, the entire gel lanes were divided into several horizontal slices and subjected to in-gel trypsin digestion. The digested samples were analyzed by LC–MS/MS using LTQ-Orbitrap XL mass spectrometer (Thermo Fisher Scientific, Bremen, Germany). […]

Molecule: EDWAGLDEDED [DSS1, protein whose D/E-rich segment (EDWAGLDEDED) acts as a DNA mimic]
- attenuation of the affinity of RPA for ssDNA [1]: acts as a DNA mimic to attenuate the affinity of replication protein A (RPA) for ssDNA

B1: Zα, tag-free (Z-DNA binding domain of human ADAR1, residues 133-209), P55265 133-209 (domain or fragment)
chain: LSIYQDQEQRILKFLEELGEGKATTAHDLSGKLGTPKKEINRVLYSLAKKGKLQKEAGTPPLWKIAVSTQAWNQHSG
- measured MW, Zα alone [2]: 9.8 ± 0.1 kDa
- stoichiometry N (Zα per D/E-rich peptide) [3]: 2 and 1
- DNA conformation after binding ([4]; CD 235-305 nm, 24°C, 7.5 μM DNA duplex, 5 mM HEPES–NaOH pH 7.5, 25 mM NaCl, 1 mM DTT): induced the Z-DNA formation
- competition for binding to d(CG)6 (Zα added to pre-incubated MBD domain and d(CG)6) ([4]; CD, increasing Zα): able to compete with the MBD domain for binding to d(CG)6

B2: d(CG)6 (dsDNA)
DNA 1: CGCGCGCGCGCG
DNA 2: CGCGCGCGCGCG
- binding result [5]: binds
- Kd [6]: 40.3 ± 3.2 nM
- Kd [7]: 262 ± 23 nM

B3: MBD3: full-length human MBD3; residue 1–291 (protein)
chain: MERKRWECPALPQGWEREEVPRRSGLSAGHRDVFYYSPSGKKFRSKPQLARYLGGSMDLSTFDFRTGKMLMSKMNKSRQRVRYDSSNQVKGKPDLNTALPVRQTASIFKQPVTKITNHPSNKVKSDPQKAVDQPRQLFWEKKLSGLNAFDIAEELVKTMDLPKGLQGVGPGCTDETLLSAIASALHTSTMPITGQLSAAVEKNPGVWLNTTQPLCKAFMVTDEDIRKQEELVQQVRKRLEEALMADMLAHVEELARDGEAPLDKACAEDDDEEDEEEEEEEPDPDPEMEHV
- complex formation with Zα on SEC [8]: almost no detectable stable complex formation of Zα and MBD3
- protein stability (in words) [9]: unstable with a large amount of aggregation and degradation
- pull-down by Zα [10]: could be pulled down by Zα
